Data: publication PMC6381839

Biological target: GoxA (glycine oxidase) from Pseudoalteromonas luteoviolacea, glycine-soaked (Gly-GoxA) (Pseudoalteromonas luteoviolacea)
Experiment: crystal structure

stoichiometry N: 4
Substance: GoxA (glycine oxidase) from Pseudoalteromonas luteoviolacea, glycine-soaked (Gly-GoxA) (enzyme)
